# Results as given in publication PMC7504508 (International Journal of Molecular Sciences, 2020).
# B1: GST-Sumo fusion protein of the perch Connexin 35 intracellular loop (amino acids 101-192) (domain or fragment)
# chain: SAKQKERRYSTVYLTLDKDQDSLKRDESKKIKNTIVNGVLQNTENSTKEAEPDCLEVKEIPNSAMRTTKSKMRRQEGISRFYIIQVVFRNAL
# Molecular target: calmodulin (UniProt P0DP23 1-149)
# Assay: SPR; GST-Sumo-Cx35 fusion proteins captured by immobilised anti-GST antibodies on a CM5 chip (Biacore 2000); calmodulin as analyte, 3 nM to 30 µM; GST-Sumo reference flowcell subtracted; 1 mM free Ca2+, 0.5 mM free Mg2+, 140 mM KCl, 10 mM MOPS pH 7.2, 0.05% Tween 20; first order ligand binding model
# Conditions: both partners purified
binder,measurement,value
B1,Kd,6.29 µM
